In publication PMC9295680 (Plant Direct, 2022):
Like-named read-outs stand apart in the source and are kept apart here.

Tests used:
Assay in all cases: SEC-MALS
[1] = target: homospermidine synthase (HSS) from Distimake quinquefolius individuum 1 (Distimake quinquefolius)
[2] = target: homospermidine synthase (HSS) from Ipomoea alba (Ipomoea alba)
[3] = target: homospermidine synthase (HSS) from Distimake quinquefolius individuum 2 (Distimake quinquefolius)
SEC-MALS [4] = target: the molecule itself
SEC-MALS [5] = target: the molecule itself; remark: listed apart in the source

homospermidine synthase (HSS) from Distimake quinquefolius individuum 1 (enzyme)
stoichiometry N [1]: 4

homospermidine synthase (HSS) from Ipomoea alba (enzyme)
stoichiometry N [2]: 4

homospermidine synthase (HSS) from Distimake quinquefolius individuum 2 (enzyme)
stoichiometry N [3]: 4

B1: homospermidine synthase (HSS) from Camonea umbellata (enzyme, UniProt A0A6M4MJB9 1-377, looked up)
chain: MGEATRDQNSTMDSAHAAVFKKSESLDGACMKIEGYDFNRGIDYPQLLKSLLSTGFQASNLGEAIQIVNEMLDWRLSHEPIMEDCNDKEKDPAYRDSVTTKIFLGFTSNLVSSGVRETIRYLVQHHMVDVVVTTAGGIEEDLIKCLAPTYKGEFSLRGSVLRSKGLNRIGNLLVPNDNYCKFEDWIIPIFDQMYEEQTKQNVLWTPSKVIARLGKEINDESSYLYWAYKNEIPVFCPSLTDGSLGDMLYFHSFTKEVADNSDRNPGLIVDIVGDIRAMDGEAVHAGSRKTGVLILGGGLPKHHICNANMMRNGADFAAYINTAQEFDGSDSGARPDEAVSWGKIRCEAKTVKVHCDATIAFPLLVAETFATKARKLH
stoichiometry N (SEC-MALS [4]): 4 | stoichiometry N (SEC-MALS [5]): 2
